Source: patent US10704030B2, “P450-BM3 variants with improved activity” (Codexis, Inc., priority 2015, dated 2020)
Positions count from the first letter of the chain named. Names and notes keep the numbering of the source.

B1: Variant 10: P450-BM3 variant of SEQ ID NO: 8: K32R; Y52F; K95P; Q111R; G115R; I176V; L216Y; D232H; P347T; E349T; M491A; T577A; E619D; D722S (protein)
chain: MTIKEMPQPKTFGELKNLPLLNTDKPVQALMRIADELGEIFKFEAPGRVTRFLSSQRLIKEACDESRFDKNLSQALKFARDFAGDGLFTSWTHEPNWKKAHNILLPSFSQRAMKRYHAMMVDIAVQLVQKWERLNADEYIEVPEDMTRLTLDTIGLCGFNYRFNSFYRDQPHPFIVSMIRALDEVMNKLQRANPDDPAYDENKRQFQEDIKVMNDYVDKIIADRKASGEQSHDLLTQMLNGKDPETGEPLDDGNISYQIITFLIAGHETTSGLLSFALYFLVKNPHVLQKVAEEATRVLVDPVPSYKQVKQLKYVGMVLNEALRLWPTAPAFSLYAKEDTVLGGEYTLTKGDEVMVLIPQLHRDKTIWGDDVEEFRPERFENPSAIPQHAFKPFGNGQRACIGQQFALHEATLVLGMMLKHFDFEDHTNYELDIKETLTLKPEGFVVKAKSKKIPLGGIPSPSTEQSAKKVRKKAENAHNTPLLVLYGSNAGTAEGTARDLADIAMSKGFAPQVATLDSHAGNLPREGAVLIVTASYNGHPPDNAKQFVDWLDQASADEVKGVRYSVFGCGDKNWAATYQKVPAFIDETLAAKGAENIADRGEADASDDFEGTYEEWRDHMWSDVAAYFNLDIENSEDNKSTLSLQFVDSAADMPLAKMHGAFSTNVVASKELQQPGSARSTRHLEIELPKEASYQEGDHLGVIPRNYEGIVNRVTARFGLSASQQIRLEAEEEKLAHLPLAKTVSVEELLQYVELQDPVTRTQLRAMAAKTVCPPHKVELEALLEKQAYKEQVLAKRLTMLELLEKYPACEMKFSEFIALLPSIRPRYYSISSSPRVDEKQASITVSVVSGEAWSGYGEYKGIASNYLAELQEGDTITCFISTPQSEFTLPKDPETPLIMVGPGTGVAPFRGFVQARKQLKEQGQSLGEAHLYFGCRSPHEDYLYQEELENAQSEGIITLHTAFSRMPNQPKTYVQHVMEQDGKKLIELLDQGAHFYICGDGSQMAPAVEATLMKSYADVHQVSEADARLWLQQLEEKGRYAKDVWAG
modifications: P450_BM3
notes: Y52F; K95P; Q111R; G115R; I176V; L216Y; D232H; P347T; E349T; M491A; T577A; E619D; D722S
B2: Variant 11: P450-BM3 variant of SEQ ID NO: 8: K95P; Q111R; G115R; I176V; L216Y; E349T; M491A; T577A; E619D; D722S (protein)
chain: B1 chain with R32K, F52Y, H232D, T347P
modifications: P450_BM3
notes: Q111R; G115R; I176V; L216Y; E349T; M491A; T577A; E619D; D722S

Experiments:
Assay type in all cases: biochemical
[1] = Validation of generalist properties: oxidation of imatinib by lyophilized P450-BM3 variant, UPLC-MS; settings: [Imatinib] = 1 mM; for TON: TON = [substrate]*% conversion/[P450]; for FIOPC (B02): fold improvement over parent MCYP-P1.2-B02
Protocol: (§1) For the production of lyophilized protein powders, LB agar plates supplemented with chloramphenicol (30 μg/mL) were streaked with E. coli containing a desired B. megaterium P450-BM3 variant in an IPTG-inducible vector. The plates were grown at 37° C. for 16 hrs before single clones were selected to inoculate a 15 mL Falcon™ tube (Fisher) containing TB media (3 mL) supplemented with chloramphenicol (30 μg/mL). The tube was shaken at 200 rpm, 30° C., and 85% humidity for 20-24 h to grow the cultures to saturation. Then, 2.5 mL of the overnight culture was used to inoculate sterile 1 L flasks containing TB medium (250 mL) supplemented with chloramphenicol (30 μg/mL), trace element solution (as described above), and 0.05 g/L ammonium iron (III) citrate. After being shaken at 250 rpm, 30° C., and 85% humidity to an OD600 of 0.8-1.2, P450 expression was induced by addition of IPTG (500 uM) and the heme precursor 5-aminolevulinic acid (5-ALA) to a final concentration of 500 uM. The cultures were grown for additional 20-24 hours and centrifuged in pre-weighed 250 mL centrifuge bottles for 20 minutes at 4000 rpm, 4° C. The supernatants were discarded, and the centrifuge bottles containing cell pellets were weighed. The pellets were resuspended in 50 mM potassium phosphate buffer with 2 mM DTT, pH 8.0 (5 mL of buffer per gram of cell pellet). The cells were lysed using a microfluidizer homogenizer, and the suspensions of cells and lysate were collected in sterile 50 mL centrifuge tubes. The samples were centrifuged for 30 minutes at 10,000 rpm, 4° C. The clarified lysate was collected into a plastic petri plate and frozen at −80° C. prior to lyophilization. The enzyme-containing lysates were lyophilized using standard methods known in the art.
(§2) Enzyme stocks (˜12 μM) were prepared by dissolving ˜20 mg of each enzyme in 100 mM potassium phosphate buffer, pH 8.0 (1 mL). The concentration of each enzyme stock solution was determined by the UV-visible absorption spectroscopy (after centrifugation to remove particulates) and diluted to standardize at 12 μM heme protein. Substrate solutions were prepared by dissolving each substrate in DMSO to reach a final concentration of 20 mM or 40 mM. Reaction mix (235 μL) followed by enzyme solution (50 μL) was added to the plates. The substrate stock solution was added to the enzyme solutions (15 μL at the two different concentrations). Each reaction contained 100 mM potassium phosphate, 1.0 mM NADP+, 25 mM glucose, 0.5 mg/mL glucose dehydrogenase, 5% DMSO and substrate at 1 or 2 mM. Loratadine, imatinib, and gefitinib (See, FIG. 1) were selected as substrates in addition to diclofenac to validate improved BM3 variants. The reactions were shaken at 450 rpm at 30° C. over 24 hours. All reactions were diluted with acetonitrile to a final concentration of 0.5 mM substrate. The plates were then centrifuged at 3,000 g for 1 hour at 20° C. The supernatant was diluted 1:1 with acetonitrile, filtered using a 0.4 micron filter, and analyzed by UPLC-MS.
(§3) For UPLC-MS analysis, the quenched and filtered reactions were transferred to 96-well HTP plates for analysis by UPLC on a Waters Acquity H-class system equipped with an autosampler. 1 uL of quenched sample was injected onto an Acquity UPLC HSS T3 column, 100 Å, (1.8 um; 2.1×100 mm). The column was eluted at a constant flow rate of 0.6 mL/min; conditions with solvent A (0.05% trifluoroacetic acid v/v, in H2O) and solvent B (0.05% trifluoroacetic acid v/v, in acetonitrile) used to elute the products of the reaction were: 0-2 min, A/B 95:5; 2-2.9 min, A/B 5:95; 2.9-3 min, A/B 95:5; 3-3.5 min, A/B 95:5. Column eluent was monitored by PDA (200-600 nm) prior to MS analysis in positive ESI mode (desolvation temperature 350° C., 3.25 kV spray voltage, cone voltage 25V). The column eluent was diverted to waste for the first 0.7 minutes of the run. For the remainder of the LC run, both MS (m/z 95-600 scan range) and MS/MS were collected. […]

[2] = Validation of generalist properties: oxidation of loratadine by lyophilized P450-BM3 variant, UPLC-MS; settings: [Loratadine] = 1 mM; for TON: TON = [substrate]*% conversion/[P450]; for FIOPC (B02): fold improvement over parent MCYP-P1.2-B02
Protocol: as §1, §2, §3

[3] = Validation of generalist properties: oxidation of gefitinib by lyophilized P450-BM3 variant, UPLC-MS; settings: [Gefitinib] = 1 mM; for TON: TON = [substrate]*% conversion/[P450]; for FIOPC (B02): fold improvement over parent MCYP-P1.2-B02
Protocol: as §1, §2, §3

[4] = Validation of generalist properties: oxidation of diclofenac by lyophilized P450-BM3 variant, UPLC-MS; settings: [Diclofenac] = 1 mM; for TON: TON = [substrate]*% conversion/[P450]; for FIOPC (B02): fold improvement over parent MCYP-P1.2-B02
Protocol: as §1, §2, §3

Molecule	% Conv. [1]	TON [1]	FIOPC (B02) [1]	% Conv. [2]	TON [2]	FIOPC (B02) [2]	% Conv. [3]	TON [3]	FIOPC (B02) [3]	% Conv. [4]	TON [4]	FIOPC (B02) [4]
B1	++++ (15.01-20.00)	‡‡‡‡ (10000-50000)	** (3.01-5.0)	++ (5.01-10.00)	‡‡ (1001-5000)	* (0.0-3.0)	++ (5.01-10.00)	‡‡ (1001-5000)	**** (10.01-15.00)	+++ (10.01-15.00)	‡‡‡ (5001-10000)	* (0.0-3.0)
B2	++++ (15.01-20.00)	‡‡‡‡ (10000-50000)	* (0.0-3.0)	+++ (10.01-15.00)	‡‡‡ (5001-10000)	* (0.0-3.0)	+ (0-5.00)	‡ (0-1000)	* (0.0-3.0)	++++ (15.01-20.00)	‡‡‡ (5001-10000)	* (0.0-3.0)
